Laboratory results reported in publication PMC6358683.

Legend:
[1] = biological target: HA of A/New Caledonia/20/1999 (influenza A virus A/New Caledonia/20/1999) (UniProt Q6WG00)
[2] = biological target: HA of A/Puerto Rico/8/1934 (influenza A virus A/Puerto Rico/8/1934) (UniProt P03452)
[3] = biological target: C05 V110P (human); test: BLI

Substance	HAI, antibody concentration at the endpoint titer; virus A/New Caledonia/20/1999 [1]	HAI, antibody concentration at the endpoint titer; virus A/Puerto Rico/8/1934 [2]	Kd [3]
C05 V110P (antibody)	0.2 µg/mL		
C05 V110P-A117E (antibody)	0.2 µg/mL	> 100 µg/mL	
HA of A/Puerto Rico/8/1934 (from UniProt P03452) (natural protein)			2.3 µM
